Target: recombinant human HIS-tagged CFP (human, UniProt P27918 28-469)
Experiment: SPR

Sequence of recombinant human HIS-tagged CFP (P27918 28-469): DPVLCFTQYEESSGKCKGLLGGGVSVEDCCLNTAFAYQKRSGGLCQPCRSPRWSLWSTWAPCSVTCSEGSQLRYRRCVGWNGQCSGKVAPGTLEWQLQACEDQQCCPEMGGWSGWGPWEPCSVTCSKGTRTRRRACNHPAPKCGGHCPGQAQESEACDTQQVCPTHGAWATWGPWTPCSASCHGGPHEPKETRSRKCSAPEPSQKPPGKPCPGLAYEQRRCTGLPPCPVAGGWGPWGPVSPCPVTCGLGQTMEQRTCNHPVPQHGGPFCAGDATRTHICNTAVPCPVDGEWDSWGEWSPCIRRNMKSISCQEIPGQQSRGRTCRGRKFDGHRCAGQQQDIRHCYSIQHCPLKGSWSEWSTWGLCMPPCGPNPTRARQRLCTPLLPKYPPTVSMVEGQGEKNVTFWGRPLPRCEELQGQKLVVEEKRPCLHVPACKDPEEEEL

B1: mouse NKp46-Fc (Fc fusion)
chain: QRINTEKETLPKPIIWAKPSIMVTNGNSVNIWCQGAQSASEYQLYFEGSFFALERPKPSRSMNKVRFFISQMTSHTAGIYTCFYQSGELWSKSSNPLKLVVTGLYDTPNLWVYPQPEVTLGENVTFFCQLKTATSKFFLLKERGSNHIQNKYGNIQAEFPMGPVTRAHRGTYRCFGSYNDYAWSFPSEPVTLLITGGVENSSLAPTDPTSSLDYWEFDLSTNESGLQKDSAFWDHTTQN
B1: binds.

From paper PMC5419422 (Science immunology, 2017)
